From patent publication US20210139892, “COMPOSITIONS AND METHODS FOR DELIVERY OF RNA TO A CELL” (The Regents of the University of California, published 2021)
Substitutions are numbered along the chain they refer to.

What was measured:
[1] = molecular target: T1, U1A-ppTG21 conjugate (U1A Cys variant disulfide-linked to ppTG21 endosomolytic peptide); number of ppTG21 not … (Homo sapiens, UniProt P09012 SEQ:2-98); experiment: BLI; biotin-RNA immobilised; 0.33-333 nM conjugate; not substantially bound; settings: label: 5' biotin; hairpin
T1 chain: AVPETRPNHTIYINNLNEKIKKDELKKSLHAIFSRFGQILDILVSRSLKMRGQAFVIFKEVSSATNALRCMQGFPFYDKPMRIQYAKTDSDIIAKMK
Description: (§1) Biolayer interferometry (BLI) was used to assess the capacity of Cas9 RNPs containing sgRNA variants to bind U1A (or U1A-ppTG21 conjugates) as well as to assess the persistence of any binding events. These assays approximated the experimental design described in Richardson et al. (Nat Biotechnol. 2016 March; 34(3):339-44. doi: 10.1038/nbt.3481). These experiments relied on a Cas9 protein covalently, site-specifically labeled with a biotin moiety, allowing loading onto a BLI sensor bearing streptavidin. The instrument used was an Octet Red 384. The buffer used was 20 mM HEPES, pH 7.5, 100 mM KCl, 10% Glycerol, 0.01 mg/ml Heparin, 0.01% IGEPAL. The loading step of the experiment used Cas9 RNP at 20 nM in the wells. U1A wells contained 100 nM, 330 nM, or 1 μM U1A. […] In contrast to the noSL RNP experiment, the SLabub RNP was markedly bound by the U1A, and the binding persisted for the ˜2000 s (˜33 min) duration of the dissociation phase (FIG. 15A). The SLabub RNP experiment was repeated using U1A-ppTG21 conjugate in the wells at concentrations spanning 100 nM to 6 μM (FIG. 15B).
(§2) The concentrations of U1A-ppTG21 conjugate in the wells covered the range of 0.33-333 nM. Substantial binding was observed between the U1 stem loop and the U1A-ppTG21 conjugate, and this binding persisted for the ˜2000 s (˜33 min) of the dissociation phase (FIG. 15C).

[2] = molecular target: T1, U1A-ppTG21 conjugate (U1A Cys variant …); experiment: BLI; biotin-RNA immobilised; 0.33-333 nM conjugate; binding persists ~2000 s; settings: label: 5' biotin; hairpin
Description: as §1, §2

[3] = molecular target: T1, U1A-ppTG21 conjugate (U1A Cys variant …); experiment: BLI; biotin-Cas9 RNP immobilised; 0.1-6 uM conjugate; binding persists ~900 s; settings: sgRNA with three U1A stem-loop hairpins
Description: as §1

[4] = molecular target: T2, U1A N-terminal RNA-binding domain (Y31H, Q36R; exact Cys variant used in BLI not stated) (Homo sapiens, UniProt P09012 SEQ:2-98); experiment: BLI; biotin-Cas9 RNP immobilised; 0.1-1 uM U1A; binding persists ~2000 s; 20 mM HEPES pH 7.5, 100 mM KCl, 0.01 mg/ml heparin; settings: tags: none; N-terminal Met removed in E. coli; sgRNA with three U1A stem-loop hairpins
T2 chain: T1 chain with C70S
Description: as §1

[5] = molecular target: T2, U1A N-terminal RNA-binding domain …; experiment: BLI; biotin-Cas9 noSL RNP immobilised; 0.1-1 uM U1A; no substantial binding; settings: tags: none; N-terminal Met removed in E. coli; sgRNA scaffold, no U1A site
Description: as §1

AAUCCAUUCAUGUACCGGAUU (ssRNA) [U2 RNA stem loop negative control]: no binding [1].

AAUCCAUUGCACUCCGGAUU (ssRNA) [U1 RNA stem loop 2]: binds [2].

B1: SLabub sgRNA (EMX1) (ssRNA)
RNA: GUCACCUCCAAUGACUAGGGGUUUAAGAGCUAUGGAUCAUUGCACUCCGAUCCAUAGCAAGUUUAAAUAAGGCUAGUCCGUUAUCAACUUGUCGAGGCUAAGUCGCAUUGCACUCCGCGACAGCACAAGCCCGCUGCCAUUGCACUCCGGCAGCAGGGAACUCGUCAAGUGGCACCGAGUCGGUGCUUUUUUU
B1: binds [3]; binds [4].

B2: noSL sgRNA (EMX1) (ssRNA)
RNA: GUCACCUCCAAUGACUAGGGGUUUAAGAGCUAUGCUGGAAACAGCAUAGCAAGUUUAAAUAAGGCUAGUCCGUUAUCAACUUGAAAAAGUGGCACCGAGUCGGUGCUUUUUUU
B2: no binding [5].
